Measurements published in PMC11170914, “A distinct dimer configuration of a diatom Get3 forming a tetrameric complex with its tail-anchored membrane cargo” (BMC Biology, 2024).
Several values for one entry are separate records, joined by “and”; a condition that tells them apart may be missing. Identical values can stand only once. Blank lines part the entries; values can stand above or below the substance they belong to.

Assays:
[1] = target: Pt-Get3a (full-length, amino acids 1–349), purified, His-tag cleaved (Phaeodactylum tricornutum); test: SEC; purified Pt-Get3a alone; NaCl increased to 500 mM; peak at ~78 mL
[2] = target: Pt-Get3a (full-length, amino acids 1–349), purified, His-tag cleaved (Phaeodactylum tricornutum); test: SEC; purified Pt-Get3a (after TEV cleavage of the 6His-tag) or its mutants alone; near physiological saline, ~100 mM NaCl; tetramer-dimer equilibrium
[3] = target: Pt-Get3a (full-length, amino acids 1–349), purified, His-tag cleaved (Phaeodactylum tricornutum); test: SAXS; HPLC with online size exclusion column, beamline BL23A1 (NSRRC), proteins ~5 mg/mL; P2 symmetry for the dimer, p222 for the Pt-Get3a/TA complex
[4] = target: Pt-Get3a L283D_I290D, purified (Phaeodactylum tricornutum); test: SEC; purified Pt-Get3a (after TEV cleavage of the 6His-tag) or its mutants alone; near physiological saline, ~100 mM NaCl; tetramer-dimer equilibrium
[5] = target: Pt-Get3a wild type, co-expressed with His-tagged TA protein (Phaeodactylum tricornutum); test: SEC; Pt-Get3a/TA complex co-expressed and co-purified by Ni-NTA, then Superdex-200; ~100 mM NaCl and, as a control, 500 mM NaCl; fractions on SDS-PAGE
[6] = target: Pt-Get3a wild type, co-expressed with His-tagged TA protein (Phaeodactylum tricornutum); test: SAXS; HPLC with online size exclusion column, beamline BL23A1 (NSRRC), proteins ~5 mg/mL; P2 symmetry for the dimer, p222 for the Pt-Get3a/TA complex

stoichiometry N [1]: 2 | stoichiometry N [2]: 4 | stoichiometry N [3]: 2
Substance: Pt-Get3a (full-length, amino acids 1–349), purified, His-tag cleaved (natural protein)

stoichiometry N [4]: 2
Substance: Pt-Get3a L283D_I290D, purified (natural protein)

stoichiometry N [5]: 4 and 2 | stoichiometry N [6]: 4
Substance: Pt-Get3a wild type, co-expressed with His-tagged TA protein (natural protein)
